Results on five molecules are retold here after patent publication US20220387441A1, “TARGETING THE NEUROLIGIN-3 BINDING PARTNER CSPG4 IN GLIOMA” (The Board of Trustees of the Leland Stanford Junior …, priority 2021, published 2022).

The subject of one data set is DIPG6 xenografts. Nature of the data set: DIPG6 xenograft survival. In kind it is in vivo. The note with it: 40 mg/kg IP, 5 days with 2 days of rest, P130 through P158, DIPG6 cells in cortices of NSG mice. The protocol:
Dosing of 40 mg/kg was administered via IP injection for 5 days with 2 days of rest in between cycles. Mice were then followed until death.

Data set [1] deals with CSPG4 shedding from glioma cells (DIPG neurospheres 13pons, 21). Nature of the data set: CSPG4 Release Assay (western blot of conditioned medium). The data set is classed as cell-based, human. An excerpt:
(§1) Here, we provide evidence that both NLGN3 and CSPG4 ectodomains are in fact cleaved in response to neuronal activity, but that these events are separated in space and time. NLGN3 undergoes ADAM-mediated cleavage in response to glutamate-mediated depolarization, freeing the NLGN3 ectodomain to bind the LNS domains of CSPG4 and induce its subsequent cleavage from the membrane (FIG. 2A). High-grade glioma cells constitutively shed proteins such as CSPG4 and NLGN3 into their culture medium. […] These proteins represent cleaved ectodomains, given their failure to react with a C-terminal CSPG4 antibody (FIG. 2B). We also note that these proteins appear as smears by western blot in large part due to the effects of chondroitin sulfate as treatment of conditioned medium with Chondroitinase ABC collapses these smears into sharp bands (FIG. 2B).
CSPG4 Release Assay: DIPG neurospheres (13pons, 21) were cultured in defined medium (1:1 Neurobasal and DMEM F12, 1× Glutamax, 1× pen/strep, 1×MEM NEAA, 1× sodium pyruvate, 1×HEPES, 1×B-27 (w/o vit A) supplement, heparin, EGF, FGF, PDGF-AA, PDGF-BB) at 37C, 5% CO2. Cells were pelleted at 250G×5 min, medium aspirated, and washed in HBSS w/o calcium and magnesium. […] Dissociated and washed cells were resuspended in HBSS plus Ca+/Mg+ and counted. […]
Background: Immunoblotting shows a protein as a band on a membrane.

For the next data set, the system named is DIPG13p xenografts. Nature of the data set: DIPG13p xenograft survival. The data set is classed as in vivo. The conditions noted are these: 30 mg/kg oral gavage daily (5 days on/2 days off) until death, DIPG 13p cells in pons of NSG mice. An excerpt:
Blockade of CSPG4 RIP via gamma secretase inhibition attenuates glioma growth. Given that CSPG4 is the largest and most structurally complex member of the surfaceome with several validated binding partners and numerous reported functions, we sought to disrupt signaling events downstream of CSPG4 RIP. To that end, we xenografted human glioma cells into pons of immune-deficient mice and treated them with gamma secretase inhibitor to prevent CSPG4 RIP. The treatment of murine OPCs with a gamma secretase inhibitor accelerated their differentiation in vitro as assessed by MBP staining and in line with reports from others.
Treatment was continued daily (5 days on/2 days off) until death with mice receiving 30 mg/kg of gamma secretase inhibitor or matched vehicle by oral gavage.

Another data set addresses T1, CTLA4 (Homo sapiens, UniProt P16410).
T1 construct: CTLA4 is expressed exclusively on T cells; host or cells: patients' T cells (endogenous)
T1 sequence (P16410 36-223): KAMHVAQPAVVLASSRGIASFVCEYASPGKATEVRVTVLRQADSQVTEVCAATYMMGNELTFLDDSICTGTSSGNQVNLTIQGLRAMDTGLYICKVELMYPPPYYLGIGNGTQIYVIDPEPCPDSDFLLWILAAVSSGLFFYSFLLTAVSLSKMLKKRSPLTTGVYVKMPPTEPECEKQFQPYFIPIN
The note with it: cited from earlier work.

Data set [2] relates to mouse-derived optic pathway glioma cells. Nature of the data set: AN2 shedding from mouse-derived optic pathway glioma cells. The data set is classed as cell-based. The note with it: mouse-derived optic pathway glioma cells incubated with human sNLGN3.
From the text: as §1

The next data set concerns primary mouse OPCs. The experiment in a line: AN2 shedding from primary mouse OPCs. The note with it: primary mouse OPCs incubated with human sNLGN3. The data set is classed as cell-based.
From the text: as §1

As for `COC(=O)N1CC2(CC2)C[C@H](C(=O)NO)[C@H]1C(=O)N1CC=C(c2ccccc2)CC1` [Aderbasib], the mouse survival result in the data set on DIPG6 xenografts is reported as “extends mouse survival”.

As for `CNC(=O)[C@@H](NC(=O)[C@H](CCCc1ccccc1)[C@H](C)N(O)C=O)C(C)(C)C` [G1254023X], the “shedding of CSPG4 into culture medium (baseline ADAM-mediated cleavage)” value in data set [1] (pre-treatment of glioma cells with ADAM10i, 4 uM, 15 minutes) is given as “prevents shedding”.

On to `CC(C)(C(=O)NCC(F)(F)C(F)(F)F)C(=O)N[C@@H]1C(=O)Nc2ccccc2-c2ccccc21` [RO4929097], for which the mouse survival result in the data set on DIPG13p xenografts is recorded as “extends mouse survival”.

Turning to “Tremelimumab: fully humanized CTLA4 antibody”, the toxicity entry with CTLA4 (10 mg/kg monthly regimen versus 15 mg/kg every 3 months, randomized clinical trial) was “doubled”. In the data set with CTLA4 (at one month), the “sustained plasma level in patients with the majority of responses” value is above 30 µg/mL. In addition, in the data set with CTLA4 (single antibody infusion, doses 0.01 mg/kg to 15 mg/kg, patients), the “dose at which objective responses were evident” value is on record as at least 3 mg/kg.

B1: recombinant NLGN3 ectodomains: recombinant human NLGN3 ectodomain, produced in house (protein, UniProt Q9NZ94 38-709, looked up)
extracellular domain: QAPAPTVNTHFGKLRGARVPLPSEILGPVDQYLGVPYAAPPIGEKRFLPPEPPPSWSGIRNATHFPPVCPQNIHTAVPEVMLPVWFTANLDIVATYIQEPNEDCLYLNVYVPTEDVKRISKECARKPNKKICRKGGSGAKKQGEDLADNDGDEDEDIRDSGAKPVMVYIHGGSYMEGTGNMIDGSILASYGNVIVITLNYRVGVLGFLSTGDQAAKGNYGLLDQIQALRWVSENIAFFGGDPRRITVFGSGIGASCVSLLTLSHHSEGLFQRAIIQSGSALSSWAVNYQPVKYTSLLADKVGCNVLDTVDMVDCLRQKSAKELVEQDIQPARYHVAFGPVIDGDVIPDDPEILMEQGEFLNYDIMLGVNQGEGLKFVEGVVDPEDGVSGTDFDYSVSNFVDNLYGYPEGKDTLRETIKFMYTDWADRDNPETRRKTLVALFTDHQWVEPSVVTADLHARYGSPTYFYAFYHHCQSLMKPAWSDAAHGDEVPYVFGVPMVGPTDLFPCNFSKNDVMLSAVVMTYWTNFAKTGDPNKPVPQDTKFIHTKANRFEEVAWSKYNPRDQLYLHIGLKPRVRDHYRATKVAFWKHLVPHLYNLHDMFHYTSTTTKVPPPDTTHSSHITRRPNGKTWSTKRPAISPAYSNENAQGSWNGDQDAGPLLVENPRDYSTELS
modifications: extracellular domain
notes: recombinant human NLGN3 ectodomain, produced in house
On to B1, for which the “shedding of murine AN2” value (in data set [2]; with primary mouse OPCs) was “augment the shedding of murine AN2” in each case. Besides, the “ADAM-mediated CSPG4 cleavage” value in data set [1] (glioma cells exposed to 100 nM recombinant human NLGN3 ectodomain, 1 hour) is on record as “augments this ADAM-mediated CSGP4 cleavage”.
